Tested on: peptide library, one residue held at a place counted from the S/T acceptor
Assay: relative phosphorylation of the sub-library (ratio to the mean residue at this position); human; higher = residue favoured
Method in brief: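 Spots on streptavidin membranes were phosphorimaged and quantified by densitometry to measure phosphorylation of biotinylated degenerate peptide sub-libraries by purified recombinant kinases, human or orthologue constructs. The reactions ran in 384-well plates for 90 min under kinase-specific conditions, with peptides at 50 μM and 50 μM ATP spiked with γ-32P-ATP. Relative sub-library phosphorylation is the ratio to the mean residue at that position.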

Sequence of EIF2AK1, construct: Full length (Q9BQI3 whole entry, looked up): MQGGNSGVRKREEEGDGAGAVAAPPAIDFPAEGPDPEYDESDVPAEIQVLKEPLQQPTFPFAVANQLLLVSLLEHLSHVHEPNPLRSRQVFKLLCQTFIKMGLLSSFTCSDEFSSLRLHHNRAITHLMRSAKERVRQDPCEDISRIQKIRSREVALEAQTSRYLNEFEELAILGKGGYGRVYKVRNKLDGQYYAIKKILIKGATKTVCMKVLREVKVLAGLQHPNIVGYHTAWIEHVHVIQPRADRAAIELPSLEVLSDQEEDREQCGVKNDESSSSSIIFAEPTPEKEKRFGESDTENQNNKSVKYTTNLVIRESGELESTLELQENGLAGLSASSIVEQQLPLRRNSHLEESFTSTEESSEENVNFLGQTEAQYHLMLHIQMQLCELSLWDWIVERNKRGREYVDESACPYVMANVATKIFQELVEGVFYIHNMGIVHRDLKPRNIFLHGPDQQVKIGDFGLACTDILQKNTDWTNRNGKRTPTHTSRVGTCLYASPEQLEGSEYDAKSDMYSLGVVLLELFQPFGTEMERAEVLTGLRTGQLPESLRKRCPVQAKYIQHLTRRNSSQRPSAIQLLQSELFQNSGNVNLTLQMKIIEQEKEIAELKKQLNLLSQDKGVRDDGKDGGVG
Sequence of AURKA, construct: Full length (O14965 whole entry, looked up): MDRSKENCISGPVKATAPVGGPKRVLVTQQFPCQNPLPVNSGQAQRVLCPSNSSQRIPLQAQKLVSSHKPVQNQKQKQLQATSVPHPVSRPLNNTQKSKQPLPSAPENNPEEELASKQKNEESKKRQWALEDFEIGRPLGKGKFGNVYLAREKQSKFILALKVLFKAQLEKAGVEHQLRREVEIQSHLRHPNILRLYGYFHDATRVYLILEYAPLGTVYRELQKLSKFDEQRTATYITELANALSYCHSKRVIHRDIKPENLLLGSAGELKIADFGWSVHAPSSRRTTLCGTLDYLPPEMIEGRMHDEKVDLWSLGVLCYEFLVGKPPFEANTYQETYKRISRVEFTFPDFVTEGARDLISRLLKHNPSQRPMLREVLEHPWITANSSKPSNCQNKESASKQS
Sequence of SIK3, construct: aa1-307 (Q9Y2K2 1-307, looked up): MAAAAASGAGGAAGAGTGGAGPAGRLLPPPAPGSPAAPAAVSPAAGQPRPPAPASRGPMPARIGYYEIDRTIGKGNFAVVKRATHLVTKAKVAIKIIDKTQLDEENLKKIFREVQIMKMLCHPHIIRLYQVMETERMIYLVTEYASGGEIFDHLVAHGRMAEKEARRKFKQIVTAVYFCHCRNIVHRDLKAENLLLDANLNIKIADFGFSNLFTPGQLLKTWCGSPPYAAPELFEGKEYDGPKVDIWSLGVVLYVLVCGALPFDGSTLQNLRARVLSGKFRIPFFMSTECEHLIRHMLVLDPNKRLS

PRKACB, construct: Full length (from UniProt P22694)
relative phosphorylation
Settings | at +1 | at +2 | at +3 | at +4 | at -1 | at -2 | at -3 | at -4 | at -5
A fixed | 0.818 | 1.26 | 0.948 | 0.9 | 0.875 | 0.426 | 0.62 | 1.15 | 1.18
D fixed | 0.607 | 1.56 | 1.15 | 1.36 | 0.667 | 0.196 | 0.231 | 0.657 | 0.772
E fixed | 0.649 | 0.788 | 1.04 | 1.3 | 0.49 | 0.167 | 0.252 | 0.816 | 0.736
F fixed | 0.811 | 0.684 | 0.72 | 0.689 | 0.455 | 0.209 | 0.213 | 0.486 | 0.594
G fixed | 0.87 | 1.29 | 1.29 | 1.15 | 1.47 | 0.436 | 0.625 | 1.51 | 1.42
H fixed | 1.22 | 1.7 | 1.45 | 1.05 | 1.22 | 0.786 | 1.34 | 1.27 | 1.22
I fixed | 1.21 | 0.573 | 0.488 | 0.705 | 0.265 | 0.2 | 0.127 | 0.471 | 0.394
K fixed | 1.06 | 0.797 | 0.927 | 0.89 | 1.92 | 3.26 | 2.66 | 1.93 | 2.25
L fixed | 1.06 | 0.634 | 0.785 | 0.713 | 0.648 | 0.219 | 0.183 | 0.532 | 0.557
M fixed | 1.46 | 0.701 | 0.79 | 0.747 | 0.856 | 0.25 | 0.204 | 0.782 | 0.601
N fixed | 1.2 | 1.23 | 1.24 | 1.25 | 1.52 | 0.566 | 0.495 | 1.04 | 0.983
P fixed | 0.382 | 1.29 | 1.58 | 1.74 | 1.44 | 0.271 | 0.824 | 1.19 | 1.21
Q fixed | 1.3 | 1.23 | 1.22 | 1.34 | 1.17 | 0.555 | 0.715 | 1.04 | 0.97
R fixed | 1.35 | 0.937 | 1.04 | 0.93 | 2.14 | 8.75 | 7.65 | 2.38 | 2.14
V fixed | 0.892 | 0.59 | 0.517 | 0.877 | 0.446 | 0.191 | 0.184 | 0.482 | 0.605
W fixed | 1.05 | 1.03 | 0.964 | 0.66 | 0.577 | 0.236 | 0.329 | 0.6 | 0.746
Y fixed | 1.06 | 0.709 | 0.855 | 0.698 | 0.839 | 0.276 | 0.354 | 0.67 | 0.624
pThr fixed | 0.988 | 0.988 | 0.984 | 1.67 | 0.443 | 0.319 | 0.474 | 0.789 | 0.727
pTyr fixed | 1.06 | 1 | 1.24 | 1.37 | 0.979 | 0.276 | 0.451 | 0.775 | 0.82

EIF2AK1, construct: Full length (from UniProt Q9BQI3)
relative phosphorylation
Settings | at +1 | at +2 | at +3 | at +4 | at -1 | at -2 | at -3 | at -4 | at -5
A fixed | 0.697 | 0.999 | 0.699 | 0.762 | 0.698 | 0.907 | 1.04 | 0.971 | 0.979
D fixed | 0.365 | 0.489 | 0.403 | 0.602 | 1.26 | 3.35 | 1.11 | 0.87 | 0.672
E fixed | 0.358 | 0.382 | 0.388 | 0.565 | 1.01 | 2.47 | 0.857 | 0.724 | 0.619
F fixed | 1.5 | 0.874 | 1.3 | 0.975 | 1.09 | 0.752 | 0.955 | 1.15 | 1.31
G fixed | 1.21 | 0.923 | 1.09 | 0.945 | 0.469 | 0.846 | 0.936 | 0.89 | 0.897
H fixed | 0.788 | 1.24 | 1.12 | 1.01 | 1.56 | 1.1 | 1.04 | 1.03 | 0.962
I fixed | 1.24 | 0.954 | 0.788 | 0.809 | 1.19 | 0.606 | 1.09 | 1.1 | 1.29
K fixed | 0.975 | 1.74 | 1.59 | 1.49 | 0.796 | 0.648 | 0.864 | 0.998 | 1
L fixed | 1.08 | 0.747 | 0.904 | 0.936 | 1.15 | 0.56 | 1.07 | 1.06 | 1.08
M fixed | 1.77 | 0.895 | 0.938 | 0.893 | 1.16 | 0.726 | 1.29 | 1.07 | 1.04
N fixed | 0.991 | 1.12 | 0.808 | 0.964 | 1.14 | 0.783 | 0.904 | 0.826 | 0.728
P fixed | 0.293 | 0.692 | 0.917 | 0.893 | 0.374 | 0.581 | 0.695 | 0.73 | 0.79
Q fixed | 1.02 | 0.889 | 0.77 | 0.923 | 0.761 | 0.809 | 0.842 | 0.751 | 0.696
R fixed | 1.79 | 1.99 | 2.1 | 1.9 | 1.07 | 0.73 | 0.958 | 1.03 | 1.16
V fixed | 0.705 | 0.903 | 0.733 | 0.612 | 1.07 | 0.58 | 0.731 | 0.93 | 1.06
W fixed | 1.02 | 0.918 | 1.26 | 1.57 | 0.731 | 0.787 | 1.23 | 1.59 | 1.44
Y fixed | 1.2 | 1.25 | 1.19 | 1.15 | 1.46 | 0.764 | 1.38 | 1.28 | 1.27
pThr fixed | 0.374 | 0.484 | 0.489 | 0.601 | 0.504 | 0.816 | 0.761 | 0.647 | 0.631
pTyr fixed | 0.536 | 0.481 | 0.569 | 0.607 | 2.17 | 0.943 | 0.981 | 0.732 | 0.792

AURKA, construct: Full length (from UniProt O14965)
relative phosphorylation
Settings | at +1 | at +2 | at +3 | at +4 | at -1 | at -2 | at -3 | at -4 | at -5
A fixed | 0.474 | 1 | 0.906 | 0.863 | 0.683 | 0.209 | 0.665 | 1.08 | 1.08
D fixed | 1.14 | 0.993 | 0.822 | 0.906 | 1.39 | 0.274 | 0.606 | 1.4 | 1
E fixed | 0.796 | 1.03 | 0.851 | 1.1 | 1.56 | 0.257 | 0.85 | 0.963 | 1.06
F fixed | 1.83 | 0.958 | 1.25 | 0.755 | 0.884 | 0.203 | 0.574 | 0.725 | 0.83
G fixed | 0.647 | 1.76 | 1.48 | 1.05 | 0.689 | 0.32 | 1.38 | 1.23 | 1.18
H fixed | 0.665 | 1.3 | 1.32 | 1.18 | 1.09 | 0.341 | 0.964 | 0.952 | 1.08
I fixed | 1.66 | 1.03 | 0.865 | 0.931 | 0.637 | 0.162 | 0.46 | 0.706 | 0.874
K fixed | 0.241 | 0.324 | 0.844 | 1.19 | 0.707 | 1.32 | 1.58 | 1.35 | 1.38
L fixed | 2.05 | 0.784 | 0.812 | 0.649 | 1.32 | 0.182 | 0.367 | 0.766 | 0.753
M fixed | 1.76 | 0.832 | 0.752 | 1 | 1.38 | 0.176 | 0.541 | 0.818 | 0.722
N fixed | 0.852 | 0.649 | 0.798 | 1.26 | 1.15 | 0.345 | 0.857 | 1.04 | 1.2
P fixed | 0.211 | 0.78 | 1.3 | 0.969 | 0.748 | 0.289 | 0.883 | 0.905 | 0.738
Q fixed | 0.735 | 0.629 | 0.843 | 1.06 | 1.09 | 0.608 | 0.667 | 0.908 | 0.802
R fixed | 0.425 | 0.509 | 0.821 | 1.24 | 1.16 | 11.7 | 4.83 | 1.71 | 1.67
V fixed | 1.11 | 0.766 | 0.775 | 0.682 | 0.601 | 0.163 | 0.425 | 0.699 | 0.759
W fixed | 1.26 | 0.881 | 1.2 | 1.22 | 0.587 | 0.232 | 0.779 | 0.966 | 0.906
Y fixed | 1.14 | 2.77 | 1.36 | 0.948 | 1.33 | 0.185 | 0.574 | 0.782 | 0.964
pThr fixed | 1.61 | 1.26 | 1.07 | 1.53 | 0.588 | 0.374 | 0.879 | 0.972 | 1.04
pTyr fixed | 0.836 | 1.53 | 1.74 | 1.43 | 2.24 | 0.356 | 1 | 0.962 | 1.3

SIK3, construct: aa1-307 (from UniProt Q9Y2K2)
relative phosphorylation
Settings | at +1 | at +2 | at +3 | at +4 | at -1 | at -2 | at -3 | at -4 | at -5
A fixed | 0.723 | 1.19 | 0.654 | 0.581 | 1.02 | 1.77 | 0.786 | 1.12 | 1.32
D fixed | 0.537 | 0.686 | 2.07 | 0.508 | 0.631 | 0.339 | 0.328 | 0.773 | 0.8
E fixed | 0.747 | 0.583 | 0.643 | 0.374 | 0.495 | 0.272 | 0.353 | 0.768 | 0.692
F fixed | 0.727 | 0.687 | 0.914 | 0.724 | 0.497 | 1.06 | 0.698 | 0.867 | 1.06
G fixed | 0.646 | 0.775 | 0.505 | 0.546 | 2.72 | 1.28 | 0.684 | 1.36 | 1.16
H fixed | 0.747 | 1.14 | 1.36 | 0.678 | 0.857 | 1.3 | 1.11 | 1.19 | 0.856
I fixed | 1.12 | 0.923 | 0.555 | 2.59 | 0.364 | 0.507 | 0.399 | 0.637 | 0.861
K fixed | 0.88 | 0.578 | 0.728 | 0.56 | 1.77 | 1.17 | 2.13 | 1.21 | 1.02
L fixed | 1.21 | 0.987 | 0.824 | 4.53 | 0.691 | 0.364 | 0.497 | 0.662 | 1.58
M fixed | 2.13 | 1.08 | 0.759 | 1.55 | 0.781 | 0.591 | 0.649 | 0.991 | 1.2
N fixed | 1.29 | 1.4 | 3.64 | 0.597 | 1.25 | 0.65 | 0.57 | 0.895 | 0.733
P fixed | 0.373 | 1.17 | 0.359 | 0.637 | 1.53 | 0.538 | 0.939 | 1.16 | 0.954
Q fixed | 1.84 | 0.988 | 0.853 | 0.481 | 1.29 | 0.526 | 0.704 | 0.8 | 0.725
R fixed | 1.1 | 0.956 | 0.688 | 0.459 | 1.4 | 1.45 | 4.8 | 1.73 | 1.5
V fixed | 1.28 | 0.926 | 0.488 | 1.18 | 0.463 | 0.645 | 0.427 | 0.645 | 0.695
W fixed | 0.795 | 1.97 | 0.851 | 0.581 | 0.486 | 2.92 | 1.26 | 1.21 | 0.973
Y fixed | 0.877 | 0.961 | 1.1 | 0.42 | 0.756 | 1.62 | 0.658 | 0.987 | 0.868
pThr fixed | 0.992 | 0.79 | 0.348 | 0.35 | 0.294 | 0.444 | 0.527 | 0.647 | 0.667
pTyr fixed | 0.487 | 0.297 | 0.335 | 0.324 | 0.589 | 0.442 | 0.522 | 0.627 | 0.782

Source: the supplement of paper PMC9876800
